According to PMC314469, “Protein Interaction Networks by Proteome Peptide Scanning” (PLoS Biology, 2004):

Assays:
[1] = target: T1, amphyphisin SH3 (AMPH_HUMAN), P49418; test: SPOT array
T1 chain: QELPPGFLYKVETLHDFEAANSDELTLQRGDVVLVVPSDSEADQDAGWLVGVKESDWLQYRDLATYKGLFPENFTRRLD

[2] = target: endophilin SH3 (SH3G2_HUMAN), Q99962; test: SPOT array

B1: P21917 231-244 (peptide)
chain: HGRAPRRPSGPGPP
normalised SPOT signal, Boehringer light units (BLU); mean over the file's lines of this peptide [1]: 35.4
normalised SPOT signal, Boehringer light units (BLU); mean over the file's lines of this peptide [2]: 11100

B2: Q14767 91-104 (peptide)
chain: GWGSPRRPTEAEAR
normalised SPOT signal, Boehringer light units (BLU); mean over the file's lines of this peptide [1]: 23.4
normalised SPOT signal, Boehringer light units (BLU); mean over the file's lines of this peptide [2]: 194

B3: Q9Y2L9 5-19 (peptide)
chain: HGRLPARPPFYAPA
normalised SPOT signal, Boehringer light units (BLU); mean over the file's lines of this peptide [1]: 33.8
normalised SPOT signal, Boehringer light units (BLU); mean over the file's lines of this peptide [2]: 775

B4: P02511 6-19 (peptide)
chain: HHPWIRRPFFPFHS
normalised SPOT signal, Boehringer light units (BLU); mean over the file's lines of this peptide [1]: 17.6
normalised SPOT signal, Boehringer light units (BLU); mean over the file's lines of this peptide [2]: 1870

B5: O75134 505-518 (peptide)
chain: GYGLLVRPSRVRRA
normalised SPOT signal, Boehringer light units (BLU); mean over the file's lines of this peptide [1]: 2560
normalised SPOT signal, Boehringer light units (BLU); mean over the file's lines of this peptide [2]: 747

B6: P21675 1363-1376 (peptide)
chain: HSDYLNRPHKSIHR
normalised SPOT signal, Boehringer light units (BLU); mean over the file's lines of this peptide [1]: 116
normalised SPOT signal, Boehringer light units (BLU); mean over the file's lines of this peptide [2]: 89.2

B7: Q02833 302-315 (peptide)
chain: ALPPPPRPDRGPPG
normalised SPOT signal, Boehringer light units (BLU); mean over the file's lines of this peptide [1]: 847
normalised SPOT signal, Boehringer light units (BLU); mean over the file's lines of this peptide [2]: 4520

B8: Q9NVM4 598-611 (peptide)
chain: GTVELRRPGQSHAA
normalised SPOT signal, Boehringer light units (BLU); mean over the file's lines of this peptide [1]: 29
normalised SPOT signal, Boehringer light units (BLU); mean over the file's lines of this peptide [2]: 42.6

B9: Q9P025 127-140 (peptide)
chain: ALPLPGRPARGVFY
normalised SPOT signal, Boehringer light units (BLU); mean over the file's lines of this peptide [1]: 602
normalised SPOT signal, Boehringer light units (BLU); mean over the file's lines of this peptide [2]: 1290

B10: P33552 65-78 (peptide)
chain: HILLFRRPLPKDQQ
normalised SPOT signal, Boehringer light units (BLU); mean over the file's lines of this peptide [1]: 12.1
normalised SPOT signal, Boehringer light units (BLU); mean over the file's lines of this peptide [2]: 40

B11: Q99848 277-290 (peptide)
chain: HGRGLKRPGKKGSN
normalised SPOT signal, Boehringer light units (BLU); mean over the file's lines of this peptide [1]: 26
normalised SPOT signal, Boehringer light units (BLU); mean over the file's lines of this peptide [2]: 71.6

B12: Q9H7M8 395-408 (peptide)
chain: HALHPARPARDHLD
normalised SPOT signal, Boehringer light units (BLU); mean over the file's lines of this peptide [1]: 4580
normalised SPOT signal, Boehringer light units (BLU); mean over the file's lines of this peptide [2]: 1270

B13: O60449 4-17 (peptide)
chain: GWATPRRPAGLLML
normalised SPOT signal, Boehringer light units (BLU); mean over the file's lines of this peptide [1]: 48.3
normalised SPOT signal, Boehringer light units (BLU); mean over the file's lines of this peptide [2]: 247

B14: Q9NYQ8 617-630 (peptide)
chain: GVISLKRPFINLTA
normalised SPOT signal, Boehringer light units (BLU); mean over the file's lines of this peptide [1]: 16.4
normalised SPOT signal, Boehringer light units (BLU); mean over the file's lines of this peptide [2]: 35.8

B15: P33551 65-78 (peptide)
chain: HILLFRRPLPKKPK
normalised SPOT signal, Boehringer light units (BLU); mean over the file's lines of this peptide [1]: 34.4
normalised SPOT signal, Boehringer light units (BLU); mean over the file's lines of this peptide [2]: 153

B16: Q9Y6X0 438-452 (peptide)
chain: GVSKPRKPPMVMTP
normalised SPOT signal, Boehringer light units (BLU); mean over the file's lines of this peptide [1]: 58.3
normalised SPOT signal, Boehringer light units (BLU); mean over the file's lines of this peptide [2]: 328

B17: O60292 454-467 (peptide)
chain: HAQSLSRPLKQTPI
normalised SPOT signal, Boehringer light units (BLU); mean over the file's lines of this peptide [1]: 58.3
normalised SPOT signal, Boehringer light units (BLU); mean over the file's lines of this peptide [2]: 153

B18: Q96MH8 48-61 (peptide)
chain: ALPLPRRPSALPPK
normalised SPOT signal, Boehringer light units (BLU); mean over the file's lines of this peptide [1]: 151
normalised SPOT signal, Boehringer light units (BLU); mean over the file's lines of this peptide [2]: 5800

B19: P18031 304-318 (peptide)
chain: HIPPPPRPPKRILE
normalised SPOT signal, Boehringer light units (BLU); mean over the file's lines of this peptide [1]: 3540
normalised SPOT signal, Boehringer light units (BLU); mean over the file's lines of this peptide [2]: 4140

B20: Q14137 202-215 (peptide)
chain: GWIQPRRPRDPTPS
normalised SPOT signal, Boehringer light units (BLU); mean over the file's lines of this peptide [1]: 76.8
normalised SPOT signal, Boehringer light units (BLU); mean over the file's lines of this peptide [2]: 836

B21: Q9C004 264-277 (peptide)
chain: GYDRLRRPGSRSKH
normalised SPOT signal, Boehringer light units (BLU); mean over the file's lines of this peptide [1]: 30.6
normalised SPOT signal, Boehringer light units (BLU); mean over the file's lines of this peptide [2]: 142

B22: Q9Y5K6 406-419 (peptide)
chain: GTVYPKRPEKPVPP
normalised SPOT signal, Boehringer light units (BLU); mean over the file's lines of this peptide [1]: 42.9
normalised SPOT signal, Boehringer light units (BLU); mean over the file's lines of this peptide [2]: 962

B23: Q96AB7 34-47 (peptide)
chain: GTYQLRRPEDRPAG
normalised SPOT signal, Boehringer light units (BLU); mean over the file's lines of this peptide [1]: 14.3
normalised SPOT signal, Boehringer light units (BLU); mean over the file's lines of this peptide [2]: 21.7

B24: O60747 405-419 (peptide)
chain: HHHLPERPPFIPEG
normalised SPOT signal, Boehringer light units (BLU); mean over the file's lines of this peptide [1]: 18
normalised SPOT signal, Boehringer light units (BLU); mean over the file's lines of this peptide [2]: 22.2

B25: O43158 529-542 (peptide)
chain: HGKGFSRPARPANR
normalised SPOT signal, Boehringer light units (BLU); mean over the file's lines of this peptide [1]: 3230
normalised SPOT signal, Boehringer light units (BLU); mean over the file's lines of this peptide [2]: 5.2

B26: Q9P2Q2 580-594 (peptide)
chain: HKGLPPRPPSHNRP
normalised SPOT signal, Boehringer light units (BLU); mean over the file's lines of this peptide [1]: 326
normalised SPOT signal, Boehringer light units (BLU); mean over the file's lines of this peptide [2]: 5020

B27: Q9Y5K9 654-668 (peptide)
chain: HDDPPQKPPRSITL
normalised SPOT signal, Boehringer light units (BLU); mean over the file's lines of this peptide [1]: 8230
normalised SPOT signal, Boehringer light units (BLU); mean over the file's lines of this peptide [2]: 133

B28: Q96LM6 67-80 (peptide)
chain: GYPAFKRPHMTAKD
normalised SPOT signal, Boehringer light units (BLU); mean over the file's lines of this peptide [1]: 31.1
normalised SPOT signal, Boehringer light units (BLU); mean over the file's lines of this peptide [2]: 97.4

B29: O14842 113-126 (peptide)
chain: GYQAFRRPSYSWGV
normalised SPOT signal, Boehringer light units (BLU); mean over the file's lines of this peptide [1]: 35
normalised SPOT signal, Boehringer light units (BLU); mean over the file's lines of this peptide [2]: 229

B30: Q9Y4C9 401-414 (peptide)
chain: HHGRIGRPPKYRKI
normalised SPOT signal, Boehringer light units (BLU); mean over the file's lines of this peptide [1]: 160
normalised SPOT signal, Boehringer light units (BLU); mean over the file's lines of this peptide [2]: 150

B31: Q15427 383-397 (peptide)
chain: GYTGPPRPPPYGYQ
normalised SPOT signal, Boehringer light units (BLU); mean over the file's lines of this peptide [1]: 61.8
normalised SPOT signal, Boehringer light units (BLU); mean over the file's lines of this peptide [2]: 577

B32: O43610 251-264 (peptide)
chain: GYDSLRRPGSRSKR
normalised SPOT signal, Boehringer light units (BLU); mean over the file's lines of this peptide [1]: 31.2
normalised SPOT signal, Boehringer light units (BLU); mean over the file's lines of this peptide [2]: 141

B33: Q9NY27 58-71 (peptide)
chain: GVPVPKRPAEGGGG
normalised SPOT signal, Boehringer light units (BLU); mean over the file's lines of this peptide [1]: 17.4
normalised SPOT signal, Boehringer light units (BLU); mean over the file's lines of this peptide [2]: 88.7

B34: P29350 24-37 (peptide)
chain: HGSFLARPSRKNQG
normalised SPOT signal, Boehringer light units (BLU); mean over the file's lines of this peptide [1]: 2390
normalised SPOT signal, Boehringer light units (BLU); mean over the file's lines of this peptide [2]: 308

B35: O60281 1125-1138 (peptide)
chain: HKAHLIRPRRLTPG
normalised SPOT signal, Boehringer light units (BLU); mean over the file's lines of this peptide [1]: 1070
normalised SPOT signal, Boehringer light units (BLU); mean over the file's lines of this peptide [2]: 1790

B36: O15488 104-117 (peptide)
chain: HLAFLKRPELGLTL
normalised SPOT signal, Boehringer light units (BLU); mean over the file's lines of this peptide [1]: 36.5
normalised SPOT signal, Boehringer light units (BLU); mean over the file's lines of this peptide [2]: 28.8

B37: O94987 842-855 (peptide)
chain: GWGSPGRPKKKHTG
normalised SPOT signal, Boehringer light units (BLU); mean over the file's lines of this peptide [1]: 135
normalised SPOT signal, Boehringer light units (BLU); mean over the file's lines of this peptide [2]: 317

B38: Q99700 27-40 (peptide)
chain: GWRSLQRPARRSGR
normalised SPOT signal, Boehringer light units (BLU); mean over the file's lines of this peptide [1]: 2550
normalised SPOT signal, Boehringer light units (BLU); mean over the file's lines of this peptide [2]: 39.1

B39: O75163 275-288 (peptide)
chain: ALPRPIRPHRNISA
normalised SPOT signal, Boehringer light units (BLU); mean over the file's lines of this peptide [1]: 7780
normalised SPOT signal, Boehringer light units (BLU); mean over the file's lines of this peptide [2]: 5490

B40: Q96S08 292-305 (peptide)
chain: HAPRIKRPRLQVVK
normalised SPOT signal, Boehringer light units (BLU); mean over the file's lines of this peptide [1]: 36.2
normalised SPOT signal, Boehringer light units (BLU); mean over the file's lines of this peptide [2]: 33.2

B41: Q9P2Y4 181-194 (peptide)
chain: HLHILHRPWKSGLS
normalised SPOT signal, Boehringer light units (BLU); mean over the file's lines of this peptide [1]: 217
normalised SPOT signal, Boehringer light units (BLU); mean over the file's lines of this peptide [2]: 28.3

B42: P01266 150-163 (peptide)
chain: GTRQLGRPKRSPRS
normalised SPOT signal, Boehringer light units (BLU); mean over the file's lines of this peptide [1]: 148
normalised SPOT signal, Boehringer light units (BLU); mean over the file's lines of this peptide [2]: 152
